# Test results as given in PMC5435981.
# Target: APOBEC3A E72A (A3A-E72A) (Homo sapiens, UniProt P31941 1-199, E72A)
# Test: ITC
# APOBEC3A E72A (A3A-E72A), sequence (P31941 whole entry E72A): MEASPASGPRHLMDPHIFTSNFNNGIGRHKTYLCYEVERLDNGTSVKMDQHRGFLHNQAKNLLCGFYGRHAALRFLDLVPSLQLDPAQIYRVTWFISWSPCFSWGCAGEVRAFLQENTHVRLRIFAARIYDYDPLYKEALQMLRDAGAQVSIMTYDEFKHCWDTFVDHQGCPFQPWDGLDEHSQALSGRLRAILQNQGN
binder,measurement,value
AATTCAAAA (ssDNA) [A2TTCA4],Kd,17 ± 6 µM
